B1: His-tagged DisA (enzyme, Bacillus subtilis, UniProt P37573 1-360, looked up)
chain: MEKEKKGAKHELDLSSILQFVAPGTPLRAGMENVLRANTGGLIVVGYNDKVKEVVDGGFHINTAFSPAHLYELAKMDGAIILSDSGQKILYANTQLMPDATISSSETGMRHRTAERVAKQTGCLVIAISERRNVITLYQENMKYTLKDIGFILTKANQAIQTLEKYKTILDKTINALNALEFEELVTFSDVLSVMHRYEMVLRIKNEINMYIKELGTEGHLIKLQVIELITDMEEEAALFIKDYVKEKIKDPFVLLKELQDMSSYDLLDDSIVYKLLGYPASTNLDDYVLPRGYRLLNKIPRLPMPIVENVVEAFGVLPRIIEASAEELDEVEGIGEVRAQKIKKGLKRLQEKHYLDRQL
B2: RecA (native, untagged) (enzyme, Bacillus subtilis, UniProt P16971 1-348, looked up)
chain: MSDRQAALDMALKQIEKQFGKGSIMKLGEKTDTRISTVPSGSLALDTALGIGGYPRGRIIEVYGPESSGKTTVALHAIAEVQQQGGQAAFIDAEHALDPVYAQKLGVNIEELLLSQPDTGEQALEIAEALVRSGAVDIVVVDSVAALVPKAEIEGDMGDSHVGLQARLMSQALRKLSGAINKSKTIAIFINQIREKVGVMFGNPETTPGGRALKFYSSVRLEVRRAEQLKQGNDVMGNKTKIKVVKNKVAPPFRTAEVDIMYGEGISKEGEIIDLGTELDIVQKSGSWYSYEEERLGQGRENAKQFLKENKDIMLMIQEQIREHYGLDNNGVVQQQAEETQEELEFEE
notes: Bacillus subtilis recombinase RecA; purified protein of 38.0 kDa; The printed mass of 38.0 kDa fits the whole protein; also called native RecA; apo RecA; source: B. subtilis BG214 bearing pBT61-borne recA, over-expressed and purified

Legend:
RecA (native, untagged) = biological target: B2; assay: cell-based or functional assay
His-tagged DisA = biological target: B1; assay: pull-down; His-tagged DisA and native RecA (1.5 μg each) loaded on a 50-μl Ni2+ microcolumn, room temperature, Buffer A (50 mM Tris-HCl pH 7.5, 50 mM NaCl, 10 mM MgCl2, 5% glycerol) with 20 mM imidazole, without ssDNA and ATP; eluted with 1 M NaCl and 400 mM imidazole; SDS-PAGE, Coomassie and Western blot; settings: both partners purified

| Binder | RecA-mediated three-strand DNA exchange with SsbA and RecO in ATPγS, fold reduction at a DisA:RecA molar ratio of 1:48 (RecA (native, untagged)) [fold] | binding result (His-tagged DisA) |
| --- | --- | --- |
| B1 | ~18 | – |
| B2 | – | binds |

From PMC6547438, “Bacillus subtilis DisA regulates RecA-mediated DNA strand exchange” (Nucleic Acids Research, 2019)
